The text below walks through data of paper doi:10.1101/2022.12.21.521443 (2022).

The experiment addresses S. cerevisiae Pbs2 target peptide (S. cerevisiae, UniProt P08018).

S. cerevisiae Pbs2 target peptide, sequence (P08018 whole entry): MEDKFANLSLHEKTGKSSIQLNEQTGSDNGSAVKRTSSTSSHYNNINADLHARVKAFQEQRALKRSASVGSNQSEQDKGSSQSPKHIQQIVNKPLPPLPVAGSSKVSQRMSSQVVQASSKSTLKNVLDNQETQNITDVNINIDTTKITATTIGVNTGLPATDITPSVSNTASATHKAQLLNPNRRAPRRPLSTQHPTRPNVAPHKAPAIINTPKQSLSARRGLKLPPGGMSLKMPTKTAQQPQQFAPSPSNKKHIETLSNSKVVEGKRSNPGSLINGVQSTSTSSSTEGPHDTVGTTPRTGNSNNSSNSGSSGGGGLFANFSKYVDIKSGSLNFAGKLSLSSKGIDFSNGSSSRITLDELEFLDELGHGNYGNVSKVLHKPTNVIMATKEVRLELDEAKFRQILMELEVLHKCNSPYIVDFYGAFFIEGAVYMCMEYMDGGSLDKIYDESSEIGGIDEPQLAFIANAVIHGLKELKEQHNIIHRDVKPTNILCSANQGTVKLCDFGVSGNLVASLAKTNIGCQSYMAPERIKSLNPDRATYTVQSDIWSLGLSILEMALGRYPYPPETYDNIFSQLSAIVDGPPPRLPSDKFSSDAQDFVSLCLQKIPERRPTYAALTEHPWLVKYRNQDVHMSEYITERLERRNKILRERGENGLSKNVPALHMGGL

B1: wild-type S. cerevisiae Sho1 SH3 domain (domain or fragment)
chain: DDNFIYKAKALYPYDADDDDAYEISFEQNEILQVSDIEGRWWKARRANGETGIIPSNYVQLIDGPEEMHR
For orientation: Kd means a measure of binding affinity in units of concentration. Consider B1, for which binding was put at a Kd of 3000 nM.
